US20090068174A1, “THERAPEUTIC ALKALINE PROTEASE COMPOSITIONS AND USE IN FACILITATING THE TRANSPORT OF AGENTS ACROSS THE GASTROINTESTINAL MUCOSAL LINING” (Kansas University Medical Center Research Institute, Inc., priority 2007, published 2009)

Tests used:
[1] = Protease stability and solubility in water; format: physicochemical
Experimental: For determining the stability of the alkaline protease in drinking water over 0-4 days, proteases can be dissolved in autoclaved tap water at a concentration of 1 mg/ml and stored at either 25° C. or 4° C. At regular intervals (every 3 hours at 0-18 hours, every 8 hours at 18-24 hours, and every 12 hours at 24-96 hours), aliquots can be ascetically removed and tested for their ability to cleave protamine sulfate using a modification of the ninhydrin assay of Rosen. Results are expressed as % residual activity measured immediately after preparation of the protease solutions.

established IBD = assay: Established IBD in the hapten model in SJL mice; format: in vivo, mouse
Experimental: SJL mice can be given TNBS by enema for the induction of colitis, and their body weights can be monitored every 3 days. When there has been a decrease in body mass by at least 15% (typically day 7), the animals can be given either four i.p. injections of 10 μg alkaline protease every 12 hours (Group 1) or administered alkaline protease in their drinking water at a concentration found above to decrease IBD parameters (Group 2). A control group can be challenged with TNBS, but would not receive protease (Group 3). Body weights can then be monitored daily, and at the end of one week, mice are euthanized and tissues taken for scoring the various histopathological and immunohistochemical parameters as known in the art.

spontaneous colitis = assay: Spontaneous colitis in C3H/HeJBir mice; format: in vivo, mouse; conditions: weeks 6-10 of life
Description: This particular mouse strain develops a transmural Th1-, cytokine-dependent colitis similar to CD that begins at 3-6 wk of life and gradually wanes until it resolves at 3 months of age. T cells and Th1 cytokines (IL-112, IFN-γ and TNF-α) mediate the disease which is maintained by an ongoing reaction to microbial flora antigens.
C3H/HeJBir mice can be obtained at 5-6 wk of age from Jackson Labs. Mice can be divided into three groups, for example: Group 1 should receive no further treatment and may simply be monitored for clinical signs, including daily measurements of body weight and endpoint pathology. Group 2 should be administered alkaline protease in their drinking water at a dose of 10-25 mg/kg/week for one week. Group 3 should be administered alkaline protease in their drinking water (dose determined above) for two weeks. After 1 week (Group 2 and half of Group 1) or 2 weeks (Group 3 and half of Group 1), animals can be sacrificed and body weight changes and histopathological scores of inflammation and tissue damage (leukocyte infiltration, ulceration, abscesses and fibrosis), activated caspase-3 expression and TNF-α expression can be measured by methods known in the art.

[2] = Table 1; cited from earlier work
TNF-α = target: T1, TNF-α (Mus musculus, UniProt P06804); assay: Pretreatment of mice with protease before TNF-α challenge, activated caspase-3 in intestine; format: in vivo
T1 sequence (P06804 80-235 limits assumed): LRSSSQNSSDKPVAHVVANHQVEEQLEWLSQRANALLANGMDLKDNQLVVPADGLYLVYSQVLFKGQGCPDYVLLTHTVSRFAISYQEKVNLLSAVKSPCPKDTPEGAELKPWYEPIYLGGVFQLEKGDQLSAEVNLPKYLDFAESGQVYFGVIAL
Experimental: In this figure, various amounts of deutrolysin and alkaline protease were administered to mice 15 min prior to challenge with TNF-α. Intestinal tissues were again recovered 1 h later and the expression of activated caspase-3 was measured. […] (B) The ability of AP to provide protection against the apoptotic effects of TNF-α in vivo was limited in its duration. Thus, pretreatment of the mice for up to 30 min prior to TNF-α challenge prevented caspase-3 activation, whereas delaying cytokine challenge beyond 30 min diminished the protective effect of the protease.
A modification of this experiment was then performed by injecting various amounts of the proteases for 15 min prior to challenge with TNF-α (FIG. 22). Intestinal tissues were again recovered 1 h later and the expression of activated caspase-3 was measured. […]
Mice were injected i.p. with 5 ng of recombinant mouse TNF-α or protease-treated TNF-α, and 2 cm segments of their duodenums were collected 1 h later. […] The sections were first treated with rabbit antibody to activated (cleaved) mouse caspase-3, and bound antibody was detected using a Histostain-SP kit. For each mouse, tissues were scored by enumerating the number of sections in which less than 10%, 10-50%, or >50% of the intestinal villi expressed activated caspase-3. At least 48 sections were analyzed in this fashion from each mouse.

human IFN-γ = target: T2, human IFN-γ (Homo sapiens, UniProt P01579); assay: Fc receptor-inducing activity of protease-treated human IFN-γ on U937 cells; format: cell-based; design: key: +: Indicates that the protease inactivated the cytokine; ^a: Cleavage of the cytokine occurred without inactivation; conditions: Table 7 summary
T2 sequence (P01579 24-166): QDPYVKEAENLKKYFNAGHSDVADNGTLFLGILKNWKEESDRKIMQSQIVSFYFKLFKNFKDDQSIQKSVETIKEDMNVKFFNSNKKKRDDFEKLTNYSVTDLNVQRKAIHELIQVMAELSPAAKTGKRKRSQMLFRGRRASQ
Experimental: (§1) Effects of the purified A. oryzae proteases on the Fc receptor-inducing activity of human IFN-γ. Samples of the cytokine were first treated with the indicated Pseudomonas or fungal proteases: Elastase (∘); Preparation ([…]); Alkaline Protease (□); Deuterolysin (▪); and 26 kDa Protease (Δ). The treated samples were added to human promyelocytic U937 cells to induce expression of Fc receptors for IgG, which was detected by flow cytometry. The results are plotted either as a decrease in of mean channel fluorescence (A) or a decrease in % positive cells (B) plotted against increasing protease amounts.
as §1, with “Samples” for “Effects of the purified A. oryzae proteases on the Fc receptor-inducing activity of human IFN-γ. Samples”

B1: Alkaline Protease: Aspergillus oryzae alkaline protease (oryzin), SEQ ID NO: 2, purified from the protease powder of Example 1 (protein, listed as Aspergillus oryzae)
chain: MQSIKRTLLLLGAILPAVLGAPVQETRRAAEKLPGKYIVTFKPGIDEAKIQEHTTWATNIHQRSLERRGATGGDLPVGIERNYKINKFAAYAGSFDDATIEEIRKNEDVAYVEEDQIYYLDGLTTQKSAPWGLGSISHKGQQSTDYIYDTSAGEGTYAYVVDSGVNVDHEEFEGRASKAYNAAGGQHVDSIGHGTHVSGTIAGKTYGIAKKASILSVKVFQGESSSTSVILDGFNWAANDIVSKKRTSKAAINMSLGGGYSKAFNDAVENAFEQGVLSVVAAGNENSDAGQTSPASAPDAITVAAIQKSNNRASFSNFGKVVDVFAPGQDILSAWIGSSSATNTISGTSMATPHIVGLSLYLAALENLDGPAAVTKRIKELATKDWKDVKGSPNLLAYNGNA
Solubility in water [1]: soluble in water | Stability of catalytic activity on storage ([1]; 4° C. storage): stable with 4 °C storage for several weeks | Retention of activity in water ([1]; for 2 days): > 80% | Effect on established IBD (established IBD): can reverse and/or lessen established IBD | Weight loss and pathological lesions (spontaneous colitis): can correct the weight loss and the pathological lesions | Heat stability (stable at) [2]: 37 °C for 3 h | pI [2]: 6.53 | Pretreatment interval prior to TNF-α challenge that prevented caspase-3 activation (TNF-α): up to 30 min | Effect of protease pretreatment on action of TNF-α in vivo (activated caspase-3) (TNF-α; protease 1-10 μg injected 15 min prior to TNF-α challenge, tissues 1 h later): blocked the action of TNF-α in vivo | Inactivation of Human IFN-γ (human IFN-γ): +
